Test results published in publication PMC8808565 (iScience, 2009).

Target: SARS-CoV-2 (2019-nCoV) Spike RBD-His Recombinant Protein, Biotinylated (SARS-CoV-2, UniProt P0DTC2, biotin (biotinylated; site not stated))
Assay: SPR

## GIGDPVTCLKSGAICHPVFCPRRYKQIGTCGLPGTKCCKKP [Human beta defensin 2 (hBD-2), recombinant]
  Kd: 1800 ± 1100 nM
